From patent US20240010735A1 (EISAI R AND D MANAGEMENT, published 2024)

Legend:
Assay in all cases: ELISA: SEAP-His proteins (1 nM) captured on anti-6-His antibody, antibody B 10 µg/mL with human IgG 100 µg/mL, HRP anti-human IgG, OD450 as % of human EphA4-SEAP-His
[1] = biological target: T1, human EphA1 extracellular region-SEAP-His protein (human, UniProt P21709 26-547)
T1 construct: extracellular domain; also called Eph receptor extracellular region-SEAP-His protein; not shown: secretory alkaline phosphatase (SEAP); histidine tag
T1 sequence (looked up): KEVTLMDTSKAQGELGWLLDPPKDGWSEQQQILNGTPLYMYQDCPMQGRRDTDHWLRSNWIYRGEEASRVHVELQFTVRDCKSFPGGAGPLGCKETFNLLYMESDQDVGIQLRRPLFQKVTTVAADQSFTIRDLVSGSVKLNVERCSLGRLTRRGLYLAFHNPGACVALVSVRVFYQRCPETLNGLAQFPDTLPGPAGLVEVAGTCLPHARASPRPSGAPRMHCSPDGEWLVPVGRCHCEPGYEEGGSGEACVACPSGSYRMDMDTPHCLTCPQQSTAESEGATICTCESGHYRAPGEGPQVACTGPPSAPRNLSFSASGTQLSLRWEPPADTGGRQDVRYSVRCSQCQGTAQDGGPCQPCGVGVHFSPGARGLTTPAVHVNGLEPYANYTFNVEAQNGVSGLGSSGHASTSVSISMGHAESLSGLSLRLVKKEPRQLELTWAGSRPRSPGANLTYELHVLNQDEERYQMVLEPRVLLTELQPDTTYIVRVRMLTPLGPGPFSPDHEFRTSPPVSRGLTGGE

[2] = biological target: T2, human EphA2 extracellular region-SEAP-His protein (human, UniProt P29317 24-537)
T2 construct: extracellular domain; also called Eph receptor extracellular region-SEAP-His protein; not shown: secretory alkaline phosphatase (SEAP); histidine tag

[3] = biological target: T3, human EphA7 extracellular region-SEAP-His protein (human, UniProt Q15375 28-555)
T3 construct: extracellular domain; also called Eph receptor extracellular region-SEAP-His protein; not shown: secretory alkaline phosphatase (SEAP); histidine tag
T3 sequence (looked up): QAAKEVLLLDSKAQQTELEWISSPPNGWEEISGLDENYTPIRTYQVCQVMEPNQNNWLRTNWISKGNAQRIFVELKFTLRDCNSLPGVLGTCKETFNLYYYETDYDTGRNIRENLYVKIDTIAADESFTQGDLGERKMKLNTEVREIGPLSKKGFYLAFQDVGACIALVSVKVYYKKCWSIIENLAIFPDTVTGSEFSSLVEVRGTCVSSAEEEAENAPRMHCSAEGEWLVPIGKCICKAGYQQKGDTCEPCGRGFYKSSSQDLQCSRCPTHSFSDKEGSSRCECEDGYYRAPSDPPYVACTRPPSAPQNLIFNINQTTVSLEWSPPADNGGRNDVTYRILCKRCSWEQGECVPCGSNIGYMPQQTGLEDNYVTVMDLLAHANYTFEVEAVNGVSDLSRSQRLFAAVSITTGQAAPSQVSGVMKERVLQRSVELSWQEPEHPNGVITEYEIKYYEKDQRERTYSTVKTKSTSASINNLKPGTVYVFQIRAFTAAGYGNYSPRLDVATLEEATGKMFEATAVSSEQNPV

[4] = biological target: T4, human EphB2 extracellular region-SEAP-His protein (human, UniProt P29323 19-543)
T4 construct: extracellular domain; also called Eph receptor extracellular region-SEAP-His protein; not shown: secretory alkaline phosphatase (SEAP); histidine tag
T4 sequence (looked up): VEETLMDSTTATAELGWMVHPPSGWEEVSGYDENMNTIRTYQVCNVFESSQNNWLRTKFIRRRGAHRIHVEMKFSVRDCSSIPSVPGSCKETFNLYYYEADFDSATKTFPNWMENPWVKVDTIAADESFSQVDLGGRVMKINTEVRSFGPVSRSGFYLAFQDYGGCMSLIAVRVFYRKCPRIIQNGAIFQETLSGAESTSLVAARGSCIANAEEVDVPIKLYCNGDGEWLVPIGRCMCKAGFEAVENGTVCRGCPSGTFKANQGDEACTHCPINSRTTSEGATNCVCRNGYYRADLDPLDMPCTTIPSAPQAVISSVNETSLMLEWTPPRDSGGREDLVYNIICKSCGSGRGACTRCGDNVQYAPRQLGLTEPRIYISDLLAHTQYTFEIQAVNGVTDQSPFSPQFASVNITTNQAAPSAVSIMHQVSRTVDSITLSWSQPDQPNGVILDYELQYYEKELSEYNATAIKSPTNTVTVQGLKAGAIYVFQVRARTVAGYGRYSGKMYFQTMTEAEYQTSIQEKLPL

[5] = biological target: T5, human EphB6 extracellular region-SEAP-His protein (human, UniProt O15197 32-594)
T5 construct: extracellular domain; also called Eph receptor extracellular region-SEAP-His protein; not shown: secretory alkaline phosphatase (SEAP); histidine tag
T5 sequence (looked up): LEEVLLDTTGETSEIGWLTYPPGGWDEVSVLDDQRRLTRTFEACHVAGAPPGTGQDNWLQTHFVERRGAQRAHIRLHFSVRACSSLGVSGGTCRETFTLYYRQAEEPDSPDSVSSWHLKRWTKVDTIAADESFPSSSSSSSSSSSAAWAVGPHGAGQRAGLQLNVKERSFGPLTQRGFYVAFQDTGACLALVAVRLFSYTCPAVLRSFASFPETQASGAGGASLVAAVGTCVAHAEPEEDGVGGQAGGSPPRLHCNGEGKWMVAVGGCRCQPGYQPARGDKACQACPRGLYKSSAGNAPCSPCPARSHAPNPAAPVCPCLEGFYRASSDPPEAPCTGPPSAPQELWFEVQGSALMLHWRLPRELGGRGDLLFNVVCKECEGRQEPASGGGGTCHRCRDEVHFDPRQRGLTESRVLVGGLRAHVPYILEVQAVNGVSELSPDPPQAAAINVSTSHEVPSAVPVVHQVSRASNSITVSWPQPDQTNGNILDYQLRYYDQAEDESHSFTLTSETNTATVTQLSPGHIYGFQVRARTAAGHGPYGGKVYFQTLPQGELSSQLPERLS

Measured: binding result

T2 sequence (P29317 24-537): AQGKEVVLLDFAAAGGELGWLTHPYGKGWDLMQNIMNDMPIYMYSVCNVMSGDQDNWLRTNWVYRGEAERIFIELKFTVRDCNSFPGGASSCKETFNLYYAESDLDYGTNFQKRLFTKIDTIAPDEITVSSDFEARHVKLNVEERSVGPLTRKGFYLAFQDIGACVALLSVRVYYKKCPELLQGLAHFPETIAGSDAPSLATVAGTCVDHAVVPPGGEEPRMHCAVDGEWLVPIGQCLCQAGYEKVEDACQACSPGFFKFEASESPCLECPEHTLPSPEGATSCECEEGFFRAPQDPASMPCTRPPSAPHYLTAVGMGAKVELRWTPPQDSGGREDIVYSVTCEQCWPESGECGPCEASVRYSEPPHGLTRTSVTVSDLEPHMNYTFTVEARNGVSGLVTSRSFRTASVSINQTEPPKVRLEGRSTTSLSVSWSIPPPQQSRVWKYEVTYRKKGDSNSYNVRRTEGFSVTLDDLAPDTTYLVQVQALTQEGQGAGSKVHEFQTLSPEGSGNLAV

B1: humanized anti-EphA4 monoclonal antibody (antibody B) (antibody, human IgG2, V domains shown)
VH: QVQLVESGGGVVQPGRSLRLSCAVSGFSLTRFGVHWVRQAPGKGLEWVAVIWRGGSTDYNAAFMSRLTISKDNSKNTVYLQMNSLRAEDTAVYYCAKESLFGVYYDYGYYSMDYWGQGTTVTVSS
VL: DIQMTQSPSSLSASVGDRVTITCRASQEISGYLSWLQQKPGKAPKRLIYAASTLDSGVPSRFSGSRSGTEYTLTISSLQPEDFATYYCLQYASYPLTFGGGTKVEIKR
notes: expressed in Expi293F cells; also called humanized antibody of antibody A; HK2-42 / L1-8
no binding (tested: 10 µg/mL): all assays above
